Assay results: patent publication US20130137855A1 (CSL, published 2013)

Columns and labels:
[1] = biological target: Soluble human IL-3Rα (human) (UniProt P26951); experiment: SPR (Biacore), soluble human IL-3Rα immobilized on CM-5 chip, scFv injected, 25 °C
Soluble human IL-3Rα [2] = biological target: T1, Soluble human IL-3Rα (human, UniProt P26951 20-305, limits assumed); experiment: SPR (Biacore), mAb captured by anti-human Fc antibody, soluble human IL-3Rα injected, 25 °C
T1 construct: The assay used 'soluble human IL-3Rα'; also called IL-3Rα chain; interleukin 3 receptor alpha chain
T1 sequence: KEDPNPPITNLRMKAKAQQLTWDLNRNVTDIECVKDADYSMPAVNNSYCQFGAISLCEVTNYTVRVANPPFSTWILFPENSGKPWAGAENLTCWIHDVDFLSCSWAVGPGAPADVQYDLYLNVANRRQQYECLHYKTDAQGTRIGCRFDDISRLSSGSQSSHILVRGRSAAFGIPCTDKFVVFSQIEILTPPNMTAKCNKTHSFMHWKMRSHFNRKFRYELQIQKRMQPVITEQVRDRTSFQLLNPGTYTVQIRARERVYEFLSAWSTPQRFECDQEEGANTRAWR

Soluble human IL-3Rα [3] = biological target: T1, Soluble human IL-3Rα; experiment: SPR (Biacore), mAb captured by anti-mouse Fc antibody, soluble human IL-3Rα injected, 25 °C

Row | Molecule | Kd (Soluble human IL-3Rα [2]) [pM] | also measured
1 | CSL362 scFv | – | Kd [1]: 2200 pM
2 | chimeric form of parental murine mAb (human IgG1) (antibody) | 1000 | –
3 | parental murine mAb (7G3) (antibody) | – | Kd (Soluble human IL-3Rα [3]): 920 pM
4 | CSL362B (antibody, human IgG1, kappa, V domains shown, Heavy chain constant region is afucosylated, Expressed in FUT8-knock-out CHO cells (Potelligent)) VH: EVQLVQSGAEVKKPGESLKISCKGSGYSFTDYYMKWARQMPGKGLEWMGDIIPSNGATFYNQKFKGQVTISADKSISTTYLQWSSLKASDTAMYYCARSHLLRASWFAYWGQGTMVTVSS VL: DIVMTQSPDSLAVSLGERATINCESSQSLLNSGNQKNYLTWYQQKPGQPPKPLIYWASTRESGVPDRFSGSGSGTDFTLTISSLQAEDVAVYYCQNDYSYPYTFGQGTKLEIKR | ~430 | –
